Where two headings read alike, the source gives them in different places.
Legend:
[1] = tested on: Phyllobates terribilis NaV1.4 (PtNaV1.4); assay: Two-electrode voltage clamp: Sxph rescue of PtNaV1.4 from STX block in Xenopus oocytes; assay type: cell-based; settings: [Sxph]:[STX] ratio, 100 nM STX, PtNaV1.4 in Xenopus oocytes
[2] = Thermofluor (TF) assay of STX binding; settings: 1.1 μM Sxph, 0-20 μM STX; ΔTm at 20 μM toxin
[3] = assay type: binding; settings: for Kd: 1 nM F-STX, 25° C., errors S.D.; for ΔΔG: ΔΔG = RT ln(Kd mutant or XSxph/Kd RcSxph), T = 298K, FP with F-STX
[4] = assay type: binding; settings: ITC, STX, 25° C.
Experimental: . […] In almost all mutants, binding affinity loss correlated with a reduction in enthalpy, consistent with a loss of interactions (Table S2). […]. […] Together, these three assays (FIGS. 1E and G) provide a robust and versatile suite of options for characterizing STX:Sxph interactions.
ITC measurements were performed at 25° C. using a MicroCal PEAQ-ITC calorimeter (Malvern Panalytical). […]. This STX stock was diluted with the SEC buffer to prepare 100 μM or 300 μM STX solutions having a final buffer composition of 135 mM NaCl, 9 mM HEPES, pH 7.4. […]. The calorimetric experiment settings were: reference power, 5 μcal/s; spacing between injections, 150 s; stir speed 750 rpm; and feedback mode, high. Data were analyzed using MicroCal PEAQ-ITC Analysis Software (Malvern Panalytical) using a single binding site model. The heat of dilution from titrations of 100 μM STX in 135 mM NaCl, 9 mM HEPES, pH 7.4 into 135 mM NaCl, 9 mM HEPES, pH 7.4 was subtracted from each experiment to correct the baseline.

B1: I782A: RcSxph STX binding pocket mutant I782A (protein)
chain: MAPTFQTALFFTIISLSFAAPNAKQVRWCAISDLEQKKCNDLVGSCNVPDITLVCVLRSSTEDCMTAIKDGQADAMFLDSGEVYEASKDPYNLKPIIAEPYSSNRDLQKCLKERQQALAKKMIGHYIPQCDEKGNYQPQQCHGSTGHCWCVNAMGEKISGTNTPPGQTRATCERHELPKCLKERQVALGGDEKVLGRFVPQCDEKGNYEPQQFHGSTGYSWCVNAIGEEIAGTKTPPGKIPATCQKHDLVTTCHYAVAMVKKSSAFQFNQLKGKRSCHSGVSKTDGWKALVTVLVEKKLLSWDGPAKESIQRAMSKFFSVSCIPGATQTNLCKQCKGEEGKNCKNSHDEPYYGNYGAFRCLKEDMGDVAFLRSTALSDEHSEVYELLCPDNTRKPLNKYKECNLGTVPAGTVVTRKISDKTEDINNFLMEAQKRQCKLFSSAHGKDLMFDDSTLQLALLSSEVDAFLYLGVKLFHAMKALTGDAHLPSKNKVRWCTINKLEKMKCDDWSAVSGGAIACTEASCPKGCVKQILKGEADAVKLEVQYMYEALMCGLLPAVEEYHNKDDFGPCKTPGSPYTDFGTLRAVALVKKSNKDINWNNIKGKKSCHTGVGDIAGWVIPVSLIRRQNDNSDIDSFFGESCAPGSDTKSNLCKLCIGDPKNSAANTKCSLSDKEAYYGNQGAFRCLVEKGDVAFVPHTVVFENTDGKNPAVWAKNLKSEDFELLCLDGSRAPVSNYKSCKLSGIPPPAIVTREESISDVVRIVANQQSLYGRKGFEKDMFQLFSSNKGNNLLFNDNTQCLATFDRQPKDIMEDYFGKPYYTTVYGASRSAMSSELISACTIKHC
- Effective Rescue Ratio50 (ERR50) [1]: 0.87±0.02
- ΔTm (STX-induced change of melting temperature) [2]: DTm increases relative to wild-type
- Kd ([3]; FP): 3 ± 0.8 nM
- ΔΔG [3]: -0.53 kcal/mol

B2: D794A: RcSxph STX binding pocket mutant D794A (protein)
chain: MAPTFQTALFFTIISLSFAAPNAKQVRWCAISDLEQKKCNDLVGSCNVPDITLVCVLRSSTEDCMTAIKDGQADAMFLDSGEVYEASKDPYNLKPIIAEPYSSNRDLQKCLKERQQALAKKMIGHYIPQCDEKGNYQPQQCHGSTGHCWCVNAMGEKISGTNTPPGQTRATCERHELPKCLKERQVALGGDEKVLGRFVPQCDEKGNYEPQQFHGSTGYSWCVNAIGEEIAGTKTPPGKIPATCQKHDLVTTCHYAVAMVKKSSAFQFNQLKGKRSCHSGVSKTDGWKALVTVLVEKKLLSWDGPAKESIQRAMSKFFSVSCIPGATQTNLCKQCKGEEGKNCKNSHDEPYYGNYGAFRCLKEDMGDVAFLRSTALSDEHSEVYELLCPDNTRKPLNKYKECNLGTVPAGTVVTRKISDKTEDINNFLMEAQKRQCKLFSSAHGKDLMFDDSTLQLALLSSEVDAFLYLGVKLFHAMKALTGDAHLPSKNKVRWCTINKLEKMKCDDWSAVSGGAIACTEASCPKGCVKQILKGEADAVKLEVQYMYEALMCGLLPAVEEYHNKDDFGPCKTPGSPYTDFGTLRAVALVKKSNKDINWNNIKGKKSCHTGVGDIAGWVIPVSLIRRQNDNSDIDSFFGESCAPGSDTKSNLCKLCIGDPKNSAANTKCSLSDKEAYYGNQGAFRCLVEKGDVAFVPHTVVFENTDGKNPAVWAKNLKSEDFELLCLDGSRAPVSNYKSCKLSGIPPPAIVTREESISDVVRIVANQQSLYGRKGFEKDMFQLFSSNKGNNLLFNDNTQCLITFDRQPKDIMEAYFGKPYYTTVYGASRSAMSSELISACTIKHC
- ΔTm (STX-induced change of melting temperature) [2]: complete loss of the thermal shift
- Kd ([3]; FP): 13200 ± 6870 nM
- ΔΔG [3]: 4.43 kcal/mol

B3: Y558I: RcSxph STX binding pocket mutant Y558I (protein)
chain: MAPTFQTALFFTIISLSFAAPNAKQVRWCAISDLEQKKCNDLVGSCNVPDITLVCVLRSSTEDCMTAIKDGQADAMFLDSGEVYEASKDPYNLKPIIAEPYSSNRDLQKCLKERQQALAKKMIGHYIPQCDEKGNYQPQQCHGSTGHCWCVNAMGEKISGTNTPPGQTRATCERHELPKCLKERQVALGGDEKVLGRFVPQCDEKGNYEPQQFHGSTGYSWCVNAIGEEIAGTKTPPGKIPATCQKHDLVTTCHYAVAMVKKSSAFQFNQLKGKRSCHSGVSKTDGWKALVTVLVEKKLLSWDGPAKESIQRAMSKFFSVSCIPGATQTNLCKQCKGEEGKNCKNSHDEPYYGNYGAFRCLKEDMGDVAFLRSTALSDEHSEVYELLCPDNTRKPLNKYKECNLGTVPAGTVVTRKISDKTEDINNFLMEAQKRQCKLFSSAHGKDLMFDDSTLQLALLSSEVDAFLYLGVKLFHAMKALTGDAHLPSKNKVRWCTINKLEKMKCDDWSAVSGGAIACTEASCPKGCVKQILKGEADAVKLEVQYMYEALMCGLLPAVEEYHNKDDFGPCKTPGSPITDFGTLRAVALVKKSNKDINWNNIKGKKSCHTGVGDIAGWVIPVSLIRRQNDNSDIDSFFGESCAPGSDTKSNLCKLCIGDPKNSAANTKCSLSDKEAYYGNQGAFRCLVEKGDVAFVPHTVVFENTDGKNPAVWAKNLKSEDFELLCLDGSRAPVSNYKSCKLSGIPPPAIVTREESISDVVRIVANQQSLYGRKGFEKDMFQLFSSNKGNNLLFNDNTQCLITFDRQPKDIMEDYFGKPYYTTVYGASRSAMSSELISACTIKHC
- Effective Rescue Ratio50 (ERR50) [1]: 0.81±0.01
- Kd ([3]; FP): 1.2 ± 0.2 nM
- ΔΔG [3]: -1.07 kcal/mol
- Kd [4]: 1.1 ± 0.5 nM
- ΔG [4]: -12.2 ± 0.3 kcal/mol
- ΔH [4]: -15.5 ± 0.3 kcal/mol
- ΔS (cal mol^−1 K^−1) [4]: −10.5 ± 0.6 cal mol^−1 K^−1

B4: P727A: RcSxph STX binding pocket mutant P727A (protein)
chain: MAPTFQTALFFTIISLSFAAPNAKQVRWCAISDLEQKKCNDLVGSCNVPDITLVCVLRSSTEDCMTAIKDGQADAMFLDSGEVYEASKDPYNLKPIIAEPYSSNRDLQKCLKERQQALAKKMIGHYIPQCDEKGNYQPQQCHGSTGHCWCVNAMGEKISGTNTPPGQTRATCERHELPKCLKERQVALGGDEKVLGRFVPQCDEKGNYEPQQFHGSTGYSWCVNAIGEEIAGTKTPPGKIPATCQKHDLVTTCHYAVAMVKKSSAFQFNQLKGKRSCHSGVSKTDGWKALVTVLVEKKLLSWDGPAKESIQRAMSKFFSVSCIPGATQTNLCKQCKGEEGKNCKNSHDEPYYGNYGAFRCLKEDMGDVAFLRSTALSDEHSEVYELLCPDNTRKPLNKYKECNLGTVPAGTVVTRKISDKTEDINNFLMEAQKRQCKLFSSAHGKDLMFDDSTLQLALLSSEVDAFLYLGVKLFHAMKALTGDAHLPSKNKVRWCTINKLEKMKCDDWSAVSGGAIACTEASCPKGCVKQILKGEADAVKLEVQYMYEALMCGLLPAVEEYHNKDDFGPCKTPGSPYTDFGTLRAVALVKKSNKDINWNNIKGKKSCHTGVGDIAGWVIPVSLIRRQNDNSDIDSFFGESCAPGSDTKSNLCKLCIGDPKNSAANTKCSLSDKEAYYGNQGAFRCLVEKGDVAFVPHTVVFENTDGKNPAVWAKNLKSEDFELLCLDGSRAPVSNYKSCKLSGIPAPAIVTREESISDVVRIVANQQSLYGRKGFEKDMFQLFSSNKGNNLLFNDNTQCLITFDRQPKDIMEDYFGKPYYTTVYGASRSAMSSELISACTIKHC
- Effective Rescue Ratio50 (ERR50) [1]: > 4
- Kd ([3]; FP): 56.9 ± 12.1 nM
- ΔΔG [3]: 1.21 kcal/mol
- Kd [4]: 31.3 ± 11.6 nM
- ΔG [4]: -10.3 ± 0.2 kcal/mol
- ΔH [4]: -11.5 ± 0.0 kcal/mol
- ΔS (cal mol^−1 K^−1) [4]: −4.2 ± 0.9 cal mol^−1 K^−1

B5: NpSxph: Nanorana parkeri (High Himalaya frog) saxiphilin, SEQ ID NO: 2 (protein, listed as Nanorana parkeri)
chain: MALTFHTALYFTIVGLSFAASDARHVQWCTISHLEQKKCNDLVGSCNVPDITLACVYRSSTENCMAAIKDGQADAMFLDSGDVYKASLDHYNLKPIIAEPYSLHRELTKCLKHRQESLGGDKMVKGRYIPQCDEKGNYHPVQCHASTGYCWCVNANGEKIEGTNTTPVQTPPTCPSQVLTKCLKERQEALGGKRIAIGRYIPQCDEQGNYRPMQCHGSTGYCWCVNAIGEKIEGTNTPPGNTQPTCQSHDWDTCHYAVAVVKNSSTFQFGQLKGKRSCHSGLSKTDGWNAPVNVFVEKKLLPWDGLAKGSIERAVSKFFSASCIPGATETNLCKQCIGEEEKKCKSSHDEPYYGDHGAFRCLQEDKGDVAFLKNTALPDEHSGVYELLCPDNTRKPLNKYKECNLGKVPADAVVTRKAGDKTKDINDFLLEAQKKKCKLFGSPHGKDLMFDDSTTHLAPLPSEIDAFFFLGVKWYNAMKALTEDVKLPSKNKVRWCTINKPEMMKCKDWAAVSGGAIACTEASCPEHCVKQILKGEADAVTLDVQYMYMALMCGLLPAVEEYPNKDDFHPCQIPGSTIKDFGTKRAVALVKKSNKDIKWNNLKGKKSCHTHVGDIPGWVIPAGLISNQNDNIDIESFFGESCAPGSDTNSKLCKLCIGDPENPKASTRCSLSDKEAYYGNEGAFRCLVEKGDVAFVPHTVVFANTDGKNPAEWAKDLKSEDFEILCLDGSRAPVTNYRGCNLSGLPPRAIVTREESVSDVVRILINQQSLYGRNGFEKDMFQMFSSAKGQNLLFNDETQCLIEFDRQPKDIMEDYFGVRYYTAVYSASRSAVPSELIPACTFKHC
- ΔTm (STX-induced change of melting temperature) [2]: 3.6 °C
- STX/F-STX affinity compared with RcSxph ([3]; FP): enhanced affinity
- Kd ([3]; FP): 0.5 ± 0.3 nM
- ΔΔG [3]: -1.60 kcal/mol
- Kd [4]: 2.5 ± 0.1 nM
- ΔG [4]: -11.8 ± 0.1 kcal/mol
- ΔH [4]: -18.7 ± 0.2 kcal/mol
- ΔS (cal mol^−1 K^−1) [4]: −23.2 ± 0.8 cal mol^−1 K^−1
- ΔH ([4]; listed as NpSxph WT): -18.7 ± 0.2 kcal/mol
